IntAct's records for PubMed 22056988

B1: Catenin beta-1 (Homo sapiens), P35222 (parent)
chain: MATQADLMELDMAMEPDRKAAVSHWQQQSYLDSGIHSGATTTAPSLSGKGNPEEEDVDTSQVLYEWEQGFSQSFTQEQVADIDGQYAMTRAQRVRAAMFPETLDEGMQIPSTQFDAAHPTNVQRLAEPSQMLKHAVVNLINYQDDAELATRAIPELTKLLNDEDQVVVNKAAVMVHQLSKKEASRHAIMRSPQMVSAIVRTMQNTNDVETARCTAGTLHNLSHHREGLLAIFKSGGIPALVKMLGSPVDSVLFYAITTLHNLLLHQEGAKMAVRLAGGLQKMVALLNKTNVKFLAITTDCLQILAYGNQESKLIILASGGPQALVNIMRTYTYEKLLWTTSRVLKVLSVCSSNKPAIVEAGGMQALGLHLTDPSQRLVQNCLWTLRNLSDAATKQEGMEGLLGTLVQLLGSDDINVVTCAAGILSNLTCNNYKNKMMVCQVGGIEALVRTVLRAGDREDITEPAICALRHLTSRHQEAEMAQNAVRLHYGLPVVVKLLHPPSHWPLIKATVGLIRNLALCPANHAPLREQGAIPRLVQLLVRAHQDTQRRTSMGGTQQQFVEGVRMEEIVEGCTGALHILARDVHNRIVIRGLNTIPLFVQLLYSPIENIQRVAAGVLCELAQDKEAAEAIEAEGATAPLTELLHSRNEGVATYAAAVLFRMSEDKPQDYKKRLSVELTSSLFRTEPMAWNETADLGLDIGAQGEPLGYRQDDPSYRSFHSGGYGQDALGMDPMMEHEMGGHHPGADYPVDGLPDLGHAQDLMDGLPPGDSNQLAWFDTDL

Variants of: B1
Details: with src_human SRC

| effect of a mutation on the interaction | Variant |
| --- | --- |
| decreasing interaction | Y333F |
